According to PMC12148503, “Molecular Basis of Interchain Disulfide Bond Formation in BMP-9 and BMP-10” (Journal of molecular biology, 2025):

B1: Pro-(X)-BMP-9 [human] / itself (parent)
chain: KPLQSWGRGSAGGNAHSPLGVPGGGLPEHTFNLKMFLENVKVDFLRSLNLSGVPSQDKTRVEPPQYMIDLYNRYTSDKSTTPASNIVRSFSMEDAISITATEDFPFQKHILLFNISIPRHEQITRAELRLYVSCQNHVDPSHDLKGSVVIYDVLDGTDAWDSATETKTFLVSQDIQDEGWETLEVSSAVKRWVRSDSTKSKNKLEVTVESHRKGCDTLDISVPPGSRNLPFFVVFSNDHSSGTKETRLELREMISHEQESVLKKLSKDGSTEAGESSHEEDTDGHVAAGSTLAIEGRSSGAGSHCQKTSLRVNFEDIGWDSWIIAPKEYEAYECKGGCFFPLADDVTPTKHAIVQTLVHLKFPTKVGKACCVPTKLSPISVLYKDDMGVPTLKYHYEGMSVAECGCR

Variants of: B1
Assay: SDS-PAGE densitometry
Settings: with itself; IMAC column purified Pro-BMP-9
KPLQSWGRGSAGGNAHSPLGVPGGGLPEHTFNLKMFLENVKVDFLRSLNLSGVPSQDKTRVEPPQYMIDLYNRYTSDKSTTPASNIVRSFSMEDAISITATEDFPFQKHILLFNISIPRHEQITRAELRLYVSCQNHVDPSHDLKGSVVIYDVLDGTDAWDSATETKTFLVSQDIQDEGWETLEVSSAVKRWVRSDSTKSKNKLEVTVESHRKGCDTLDISVPPGSRNLPFFVVFSNDHSSGTKETRLELREMISHEQESVLKKLSKDGSTEAGESSHEEDTDGHVAAGSTLAIEGRSSGAGSHCQKTSLRVNFEDIGWDSWIIAPKEYEAYECRGGCFFPLADDVTPTKHAIVQTLVHLKFPTKVGKACCVPTKLSPISVLYKDDMGVPTLKYHYEGMSVAECGCR [chain 1 K335R] showed a screen value of 0.7. KPLQSWGRGSAGGNAHSPLGVPGGGLPEHTFNLKMFLENVKVDFLRSLNLSGVPSQDKTRVEPPQYMIDLYNRYTSDKSTTPASNIVRSFSMEDAISITATEDFPFQKHILLFNISIPRHEQITRAELRLYVSCQNHVDPSHDLKGSVVIYDVLDGTDAWDSATETKTFLVSQDIQDEGWETLEVSSAVKRWVRSDSTKSKNKLEVTVESHRKGCDTLDISVPPGSRNLPFFVVFSNDHSSGTKETRLELREMISHEQESVLKKLSKDGSTEAGESSHEEDTDGHVAAGSTLAIEGRSSGAGSHCQKTSLRVNFEDIGWDSWIIAPKEYEAYECKGGCFFPLADDVTPTKHAIVQTLVHLKFPTKVSKACCVPTKLSPISVLYKDDMGVPTLKYHYEGMSVAECGCR [chain 1 G367S] showed a screen value of 1.29. KPLQSWGRGSAGGNAHSPLGVPGGGLPEHTFNLKMFLENVKVDFLRSLNLSGVPSQDKTRVEPPQYMIDLYNRYTSDKSTTPASNIVRSFSMEDAISITATEDFPFQKHILLFNISIPRHEQITRAELRLYVSCQNHVDPSHDLKGSVVIYDVLDGTDAWDSATETKTFLVSQDIQDEGWETLEVSSAVKRWVRSDSTKSKNKLEVTVESHRKGCDTLDISVPPGSRNLPFFVVFSNDHSSGTKETRLELREMISHEQESVLKKLSKDGSTEAGESSHEEDTDGHVAAGSTLAIEGRSSGAGSHCQKTSLRVNFEDIGWDSWIIAPKEYEAYECRGGCFFPLADDVTPTKHAIVQTLVHLKFPTKVSKACCVPTKLSPISVLYKDDMGVPTLKYHYEGMSVAECGCR [chain 1 K335R G367S] gave a screen value of 3.24.
